# Measurements reported in patent US8993717B2, “Gadd45beta targeting agents” (Imperial Innovations Limited, priority 2009, dated 2015).
# Square brackets hold non-standard residues; d marks the D form. Peptide text beside a SMILES is read from it. * marks the point of attachment. Benzoyl(3-OH,4-OMe) = COc1ccc(C(=O)*)cc1O; Fmoc = O=C(OCC1c2ccccc2-c2ccccc21)*; ClZ = O=C(OCc1ccccc1Cl)*; Cbz = O=C(OCc1ccccc1)*; βAla = NCCC(=O)O
# Target: T1, Gadd45β/MKK7 interaction (Homo sapiens, UniProt O14733)
# T1 construct: The GST-fused full-length kinase was coated for 16 h at 4° C., at a concentration of 42 nM; made in house
# T1 sequence (O14733 1-419): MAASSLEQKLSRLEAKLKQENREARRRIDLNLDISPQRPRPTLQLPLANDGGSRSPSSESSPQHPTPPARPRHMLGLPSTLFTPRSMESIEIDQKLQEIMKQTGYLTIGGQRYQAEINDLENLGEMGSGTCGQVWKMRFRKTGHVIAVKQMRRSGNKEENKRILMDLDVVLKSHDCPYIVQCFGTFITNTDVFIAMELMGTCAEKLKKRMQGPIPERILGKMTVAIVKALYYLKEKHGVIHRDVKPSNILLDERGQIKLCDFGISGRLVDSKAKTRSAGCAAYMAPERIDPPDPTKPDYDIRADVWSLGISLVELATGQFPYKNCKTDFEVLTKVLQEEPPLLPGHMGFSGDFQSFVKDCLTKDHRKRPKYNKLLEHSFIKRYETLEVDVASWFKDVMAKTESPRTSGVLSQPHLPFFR
# Experiment: ELISA competition assay of biotin-hGadd45β binding to coated GST-MKK7
# Details: Table I, initial Elisa screening; coated MKK7 42 nM, biotin-hGadd45β 21 nM; competitor 21 nM, sub-libraries 42 nM
# Experimental: To evaluate the inhibitory properties of peptides, ELISA-based assays were performed. In these assays, a fusion protein of glutathione S-transferase (GST) and mitogen-activated protein kinase kinase 7 (MKK7) was coated onto wells of a 96-well plate, while biotinylated-hGadd45β was used in solution. hGadd45β was biotinylated using an EZ Link NHS-LC-biotin kit (Pierce, Rockford, Ill.), according to Tornatore et al. (Tornatore L., et al. (2008). J Mol Biol; 378:97-111).
# Firstly, the association between Gadd45β and MKK7 was investigated by ELISA assays as also reported in Tornatore et al. (Tornatore L., et al. (2008). J Mol Biol; 378:97-111). The GST-fused full-length kinase was coated for 16 h at 4° C., at a concentration of 42 nM in buffer A (25 mM Tris pH 7.5, 150 mM NaCl, 1 mM DTT and 1 mM EDTA) into wells of a 96-well microliter plate. Some wells were filled with buffer alone and were used as blanks. After incubation for 16 h at 4° C., the solutions were removed and the wells were filled with 350 μL of a 1% (w/v) solution of NFDM (Non Fat Dry Milk) in PBS (phosphate buffered saline). The plate was incubated for 1 h at 37° C. in the dark. After washing with buffer T-PBS (PBS with 0.004% (v/v) Tween detergent), the wells were filled with 100 μL of biotinylated-hGadd45β at concentrations ranging from 8.4 nM to 168 nM. Each data point was performed in triplicate. Following incubation for 1 hr in the dark at 37° C. the solutions were removed and the wells were again washed with T-PBS. Then 100 μL of a 1:10,000 dilution of horseradish peroxidase-conjugated streptavidin dissolved in buffer was added to each well and the plate incubated for 1 hr at 37° C. in the dark. After removal of the enzyme solution and washing, 100 μL of the chromogenic substrate o-phenylendiamine (0.4 mg/mL in 50 mM sodium phosphate-citrate buffer, containing 0.4 mg/mL of urea in hydrogen peroxide) was added and the colour was allowed to develop in the dark for 5 min. The reaction was stopped by adding 50 μL of 2.5 M H2SO4. The absorbance at 490 nm was measured in all wells and the values were averaged after subtracting the corresponding blanks. Bound protein was then detected as described above. The molar concentration of biotinylated-hGadd45β at which the half-maximal ELISA signal is detected corresponds to the dissociation constant (KD) (Friguet B, Chaffotte A F, Djavadi-Ohaniance L, Goldberg M E. J Immunol Methods. 1985 Mar. 18; 77 (2):305-19). Binding competition assays were performed by coating GST-MKK7 at 42 nM as described, a concentration of biotinylated-hGadd45β of 21 nM (pre-saturation conditions 1:0.5 mol/mol ratio) and, in a first test, using competitors at 21 nM. The binding of biotinylated hGadd45β to GST-MKK7 was analyzed in the presence of increasing amounts of competitor peptide (concentrations ranging from 0.01 nM to 100 nM), and the values obtained with the competitor were expressed as the percentage of the binding detected in the absence of competitor. […] According to the convention adopted in the table “L-Xaa” and “D-Xaa” refer to the L and D forms of amino acid Xaa.
# A simplified combinatorial peptide library (Marasco et al. 2008, Curr. Protein Pept. Sci. 9:447-67) was screened for antagonists of the Gadd45β/MKK7 interaction. This library contained a total of 12^4=20,736 different tetrapeptides formed by combinations of the following amino acid residues Gln (Q), Ser (S), Arg (R), Ala (A), Tyr (Y), Pro (P), Met (M), Cys (C), Phe (F), Leu (L), His (H), Asp (D), and was iteratively deconvoluted in four steps by ELISA competition assays using at each step coated MKK7 (42 nM), soluble-biotin-hGadd45β (21 nM) and each of the 12 sub-libraries (42 nM).
row,Compound,% Inhibition of Gadd45β-MKK7 binding
1,Fmoc(βAla)2-YDHA-NH2 ({Fmoc-βAla-βAla}-YDHA-NH2; SMILES C[C@H](NC(=O)[C@H](Cc1c[nH]cn1)NC(=O)[C@H](CC(=O)O)NC(=O)[C@H](Cc1ccc(O)cc1)NC(=O)CCNC(=O)CCNC(=O)OCC1c2ccccc2-c2ccccc21)C(N)=O),15%
2,Fmoc(βAla)2-YDHC-NH2 ({Fmoc-βAla-βAla}-YDHC-NH2; SMILES NC(=O)[C@H](CS)NC(=O)[C@H](Cc1c[nH]cn1)NC(=O)[C@H](CC(=O)O)NC(=O)[C@H](Cc1ccc(O)cc1)NC(=O)CCNC(=O)CCNC(=O)OCC1c2ccccc2-c2ccccc21),44%

# Same assay, conditions: Table II, modified pure peptides
row,Compound,% Inhibition of Gadd45β-MKK7 binding
1,Ac-WDHW-NH2,50%
2,Ac-WDKF-NH2,26%
3,Ac-WDKW-NH2,69%
4,Ac-WDRF-NH2,46%
5,Ac-WERF-NH2,29%
6,Ac-WERW-NH2,69%
7,Ac-YDKF-NH2,35%
8,Ac-YDKW-NH2,23%
9,Ac-YDRW-NH2,43%
10,Ac-YEHF-NH2,52%
11,Ac-YEHW-NH2,64%
12,Ac-YEKF-NH2,64%
13,Ac-YEKW-NH2,27%
14,Ac-YERW-NH2,59%

# Next, values leading:
row,% Inhibition of Gadd45β-MKK7 binding,Compound
1,28%,Ac-WDHF-NH2
2,93%,Ac-WDRW-NH2
3,36%,Ac-WEHF-NH2
4,75%,Ac-WEHW-NH2
5,65%,Ac-WEKF-NH2
6,65%,Ac-WEKW-NH2
7,94%,Ac-YDHF-NH2
8,99%,Ac-YDHQ-NH2
9,58%,Ac-YDHW-NH2
10,45%,Ac-YDRF-NH2
11,93%,Ac-YERF-NH2

# Same assay, conditions: Table III, modified peptides
row,Compound,% Inhibition of Gadd45β-MKK7 binding
1,2CI-Z-YDHF-NH2 (ClZ-YDHF-NH2),38%
2,2CI-Z-YDHQ-NH2 (ClZ-YDHQ-NH2),40%
3,2CI-Z-YERF-NH2 (ClZ-YERF-NH2),38%
4,"3-OH—4MeO-Benzoid acid-YDHF-NH2 ({Benzoyl(3-OH,4-OMe)}-YDHF-NH2)",81%
5,Ac-PERF-NH2,24%
6,Ac-YARF-NH2,17%
7,Ac-YDHFLys(Z)-NH2 (Ac-YDHFK(Cbz)-NH2; SMILES CC(=O)N[C@@H](Cc1ccc(O)cc1)C(=O)N[C@@H](CC(=O)O)C(=O)N[C@@H](Cc1c[nH]cn1)C(=O)N[C@@H](Cc1ccccc1)C(=O)N[C@@H](CCCCNC(=O)OCc1ccccc1)C(N)=O),8%
8,Ac-YDHQLys(Z)-NH2 (Ac-YDHQK(Cbz)-NH2; SMILES CC(=O)N[C@@H](Cc1ccc(O)cc1)C(=O)N[C@@H](CC(=O)O)C(=O)N[C@@H](Cc1c[nH]cn1)C(=O)N[C@@H](CCC(N)=O)C(=O)N[C@@H](CCCCNC(=O)OCc1ccccc1)C(N)=O),2%
9,Ac-YEHF-NH2,23%
10,Ac-YERFLys(Z)-NH2 (Ac-YERFK(Cbz)-NH2; SMILES CC(=O)N[C@@H](Cc1ccc(O)cc1)C(=O)N[C@@H](CCC(=O)O)C(=O)N[C@@H](CCCNC(=N)N)C(=O)N[C@@H](Cc1ccccc1)C(=O)N[C@@H](CCCCNC(=O)OCc1ccccc1)C(N)=O),6%
11,Ac-YERP-NH2,0%
12,Benzoic acid-YDHF-NH2,0%
13,Benzoic acid-YDHQ-NH2,1%
14,Benzoic acid-YERF-NH2,24%

# Now from value to compound:
row,% Inhibition of Gadd45β-MKK7 binding,Compound
1,7%,"3-OH—4MeO-Benzoid acid-YDHQ-NH2 ({Benzoyl(3-OH,4-OMe)}-YDHQ-NH2)"
2,86%,"3-OH—4MeO-Benzoid acid-YERF-NH2 ({Benzoyl(3-OH,4-OMe)}-YERF-NH2)"
3,7%,Ac-AERF-NH2
4,19%,Ac-YDRF-NH2
5,13%,Ac-YEAF-NH2
6,13%,Ac-YEPF-NH2
7,28%,Ac-YERA-NH2
8,13%,Ac-YPRF-NH2

# Same assay, conditions: Table V, FIG. 3C; read-out: IC50 ELISA
row,IC50,Compound
1,> 5 nM,"CC(=O)N[C@H](CC1CCCCC1)C(=O)N[C@H](CCCNC(=N)N)C(=O)N[C@H](Cc1ccccc1)C(N)=O [Compound 20, Ac-Cha-Arg-Phe-NH2]"
2,> 5 nM,"N=C(N)NCCC[C@@H](NC(=O)[C@@H](CCC(=O)O)NC(=O)[C@@H](Cc1ccc(O)cc1)NC(=O)[C@@H](Cc1ccc(O)cc1)NC(=O)OCc1ccccc1)C(=O)N[C@H](Cc1ccccc1)C(N)=O [Compound 22, Z-Tyr-Tyr-Glu-Arg-Phe-NH2] (Cbz-[dY][dY][dE][dR][dF]-NH2)"
3,> 10 nM,"NC(=O)CC[C@@H](NC(=O)[C@@H](Cc1c[nH]cn1)NC(=O)[C@@H](CC(=O)O)NC(=O)[C@@H](Cc1ccc(O)cc1)NC(=O)OCc1ccccc1)C(N)=O [Compound 32, Z-Tyr-Asp-His-Gln-NH2] (Cbz-[dY][dD][dH][dQ]-NH2)"
4,> 10 nM,"NC(=O)CC[C@@H](NC(=O)[C@@H](Cc1c[nH]cn1)NC(=O)[C@@H](CC(=O)O)NC(=O)[C@@H](Cc1ccc(O)cc1)NC(=O)[C@@H](Cc1ccc(O)cc1)NC(=O)OCc1ccccc1)C(N)=O [Compound 33, Z-Tyr-Tyr-Asp-His Gln-NH2] (Cbz-[dY][dY][dD][dH][dQ]-NH2)"

# Same assay, conditions: Table VI; compounds 0.01-100 nM; read-out: IC50 Elisa
row,IC50,Compound
1,> 100 nM,"CC(=O)NC(Cc1ccc(O)cc1)C(=O)NC(Cc1ccccc1)C(N)=O (stereo not drawn) [Compound A1, Ac-YF-NH2] (Ac-Tyr-Phe-NH2; configuration not given here)"
2,> 100 nM,"CC(=O)NC(Cc1ccccc1)C(=O)NC(CCCNC(=N)N)C(=O)NC(Cc1ccc(O)cc1)C(N)=O (stereo not drawn) [Compound O1, Ac-FRY-NH2] (Ac-Phe-Arg-Tyr-NH2; configuration not given here)"

# Same assay, conditions: read-out: IC50s in vitro
row,IC50,Compound
1,0.1 nM,"N=C(N)NCCC[C@@H](NC(=O)[C@@H](Cc1ccc(O)cc1)NC(=O)OCc1ccccc1)C(=O)N[C@H](Cc1ccccc1)C(N)=O [Compound 19, Z-Tyr-Arg-Phe-NH2] (Cbz-[dY]-[dR]-[dF]-NH2)"

# Same assay, conditions: result in words
row,inhibition of Gadd45β/MKK7 complex formation in ELISA competition assays,Compound
1,inactive,"CC(=O)N[C@H](CC1CCCCC1)C(=O)N[C@H](CCCNC(=N)N)C(=O)N[C@H](Cc1ccccc1)C(N)=O [Compound 20, Ac-Cha-Arg-Phe-NH2]"
2,IC50s similar to those of DTPs,Ac-YDHF-NH2
3,IC50s similar to those of DTPs,Ac-YERF-NH2
